Assay results from paper doi:10.1101/2020.02.26.966614.

Biological target: MICAL1-oxidized actin filaments (alpha-skeletal actin, rabbit) (rabbit) (UniProt P68135)
Experiment: single-filament microfluidics with fluorescence microscopy

Substance: eGFP-S3D-cofilin-1 (from UniProt P18760 1-166) (natural protein)
- growth rate of single cofilin-1 domains, normalized by the cofilin concentration: 10 sub/s/µM
